What was measured:
[1] = target: T1, human 5T4 on the cell surface (human, UniProt Q13641 32-420); experiment: flow cytometry on HCC4006 cells (53,000 5T4 per cell)
T1 construct: whole, on cells; also called h5T4; TPBG
T1 sequence (looked up): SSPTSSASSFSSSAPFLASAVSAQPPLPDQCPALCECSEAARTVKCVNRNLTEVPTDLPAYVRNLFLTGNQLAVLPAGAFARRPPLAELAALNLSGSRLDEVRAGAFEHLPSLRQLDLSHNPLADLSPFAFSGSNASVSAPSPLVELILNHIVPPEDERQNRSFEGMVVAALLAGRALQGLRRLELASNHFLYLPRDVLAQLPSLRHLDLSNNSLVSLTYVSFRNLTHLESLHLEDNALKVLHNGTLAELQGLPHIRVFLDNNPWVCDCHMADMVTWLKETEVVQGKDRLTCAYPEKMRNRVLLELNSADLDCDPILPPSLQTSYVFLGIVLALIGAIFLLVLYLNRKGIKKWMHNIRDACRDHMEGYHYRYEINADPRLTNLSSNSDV

[2] = target: T1, human 5T4 on the cell surface; experiment: flow cytometry on KYSE-30 cells (61,000 5T4 per cell)
[3] = target: T1, human 5T4 on the cell surface; experiment: flow cytometry on H1703 cells (15,000 5T4 per cell)
[4] = target: T2, human 5T4 (SPR and epitope mapping, construct not stated) (human, UniProt Q13641 32-355, limits assumed); experiment: SPR, Biacore 8K, 37 °C, TriNKET captured on anti-hFc chip, pH 7.4
T2 construct: also called h5T4
T2 sequence (looked up): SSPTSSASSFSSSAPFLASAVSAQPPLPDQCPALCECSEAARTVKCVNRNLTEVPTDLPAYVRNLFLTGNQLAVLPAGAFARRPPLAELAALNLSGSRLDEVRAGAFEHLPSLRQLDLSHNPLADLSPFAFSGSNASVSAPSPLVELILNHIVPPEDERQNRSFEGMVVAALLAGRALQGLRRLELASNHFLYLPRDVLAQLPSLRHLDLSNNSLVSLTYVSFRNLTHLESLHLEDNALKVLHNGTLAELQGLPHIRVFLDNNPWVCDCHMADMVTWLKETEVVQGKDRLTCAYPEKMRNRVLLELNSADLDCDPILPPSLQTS
Protocol: (§1) Briefly, SPR was performed using a Biacore 8K instrument at physiological temperature of 37° C. Briefly, human Fc specific antibodies were covalently immobilized at a density of about 8000-10000 resonance units (RU) on carboxy methyl dextran matrix of a CM5 biosensor chip to create an anti-hFc IgG chip. Samples were injected on the anti-hFc IgG chip at a flow rate of 10 μL/min for 60 seconds. Protein was serially diluted (300 nM-0.14 nM) in three-fold dilutions with running buffer and injected at a flow rate of 30 μl/min over the captured test articles. Association was monitored for 240-300 seconds, and dissociation was monitored for 300-900 seconds. Surfaces were regenerated between cycles with three pulses of 10 mM glycine-HCl (pH 1.7) injected for 20 seconds at 100 μL/min.

[5] = target: T1, human 5T4 on the cell surface; experiment: flow cytometry on KYSE-30 cells (61,000 5T4/cell), fold over background
Protocol: The KYSE-30 and H292 human cancer cell lines, derived from esophageal squamous cell carcinoma and non-small cell lung carcinoma, respectively, were used. […] After incubation, binding patterns of the TriNKET® and mAb to 5T4+ cells were detected using a fluorophore conjugated anti-human IgG secondary antibody. Cells were analyzed by flow cytometry and fold MFI over secondary-only controls reported.

[6] = target: T1, human 5T4 on the cell surface; experiment: flow cytometry on BT474 cells (20,000 5T4 per cell)
[7] = target: T1, human 5T4 on the cell surface; experiment: cell-based or functional assay
[8] = target: T2, human 5T4 (SPR and epitope mapping, …); experiment: SPR, Biacore 8K, 37 °C, TriNKET captured on anti-hFc chip, pH 6.0
Protocol: as §1

[9] = target: T1, human 5T4 on the cell surface; experiment: flow cytometry on Detroit 562 cells (21,000 5T4 per cell)
[10] = target: T3, human NKG2D on CD8+ T cells (human, UniProt P26718 1-216); experiment: cell-based or functional assay
T3 sequence (looked up): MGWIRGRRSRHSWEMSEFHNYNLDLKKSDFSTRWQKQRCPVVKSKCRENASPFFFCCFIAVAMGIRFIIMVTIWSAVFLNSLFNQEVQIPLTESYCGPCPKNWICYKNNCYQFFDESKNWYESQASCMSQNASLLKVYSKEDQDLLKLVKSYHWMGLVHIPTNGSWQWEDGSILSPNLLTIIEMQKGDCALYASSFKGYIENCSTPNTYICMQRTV

[11] = target: T1, human 5T4 on the cell surface; experiment: cell binding assay on 5T4-expressing tumor cells (cell line not given)
cynomolgus 5T4 = target: T4, cynomolgus 5T4 (cynomolgus monkey, UniProt Q4R8Y9 32-355, limits assumed); experiment: SPR
T4 construct: also called Cynomolgus monkey 5T4
T4 sequence (looked up): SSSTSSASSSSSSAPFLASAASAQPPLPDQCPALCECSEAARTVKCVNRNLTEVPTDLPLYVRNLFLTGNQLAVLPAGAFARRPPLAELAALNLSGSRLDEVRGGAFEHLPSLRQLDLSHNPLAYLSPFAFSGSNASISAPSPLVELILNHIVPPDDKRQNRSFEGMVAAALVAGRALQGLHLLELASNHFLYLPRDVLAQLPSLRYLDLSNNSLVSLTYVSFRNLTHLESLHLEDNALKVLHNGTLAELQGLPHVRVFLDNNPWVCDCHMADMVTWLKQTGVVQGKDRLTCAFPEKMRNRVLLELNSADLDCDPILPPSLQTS
Protocol: as §1

[12] = target: T2, human 5T4 (SPR and epitope mapping, …); experiment: SPR
Protocol: as §1

B1: AB1310/AB1783-TriNKET® (bispecific antibody, human IgG1, kappa)
chain: DIQLTQSPSSLSASVGDRVTITCRASQSVTTSNYNYMHWFQQKPGKAPKLLIKFASNLESGVPSRFSGSGSGTDFTLTISSLQPEDFATYYCQHSWEIPWTFGCGTKVEIKGGGGSGGGGSGGGGSGGGGSEVQLVESGGGLVKPGGSLRLSCAASRFTFSDFGMHWVRQAPGKCLEWVSYISSGSSTIYYADSVKGRFTISRDNAKNSLYLQMNSLRAEDTAVYYCASSQSYYRGTLDYWGQGTTVTVSSASDKTHTCPPCPAPELLGGPSVFLFPPKPKDTLMISRTPEVTCVVVDVSHEDPEVKFNWYVDGVEVHNAKTKPREEQYNSTYRVVSVLTVLHQDWLNGKEYKCKVSNKALPAPIEKTISKAKGQPREPRVYTLPPCRDELTKNQVSLTCLVKGFYPSDIAVEWESNGQPENNYKTTPPVLVSDGSFTLYSKLTVDKSRWQQGNVFSCSVMHEALHNHYTQKSLSLSPG
heavy: EVQLVESGGGLVKPGGSLRLSCAASGFTFSSYSMNWVRQAPGKGLEWVSSISSSSSYIYYADSVKGRFTISRDNAKNSLYLQMNSLRAEDTAVYYCARGAPIGAAAGWFDPWGQGTLVTVSSASTKGPSVFPLAPSSKSTSGGTAALGCLVKDYFPEPVTVSWNSGALTSGVHTFPAVLQSSGLYSLSSVVTVPSSSLGTQTYICNVNHKPSNTKVDKKVEPKSCDKTHTCPPCPAPELLGGPSVFLFPPKPKDTLMISRTPEVTCVVVDVSHEDPEVKFNWYVDGVEVHNAKTKPREEQYNSTYRVVSVLTVLHQDWLNGKEYKCKVSNKALPAPIEKTISKAKGQPREPQVCTLPPSRDELTENQVSLTCLVKGFYPSDIAVEWESNGQPENNYKTTPPVLDSDGSFFLYSWLTVDKSRWQQGNVFSCSVMHEALHNHYTQKSLSLSPG
light: DIQMTQSPSSVSASVGDRVTITCRASQGISSWLAWYQQKPGKAPKLLIYAASSLQSGVPSRFSGSGSGTDFTLTISSLQPEDFATYYCQQGVSFPRTFGGGTKVEIKRTVAAPSVFIFPPSDEQLKSGTASVVCLLNNFYPREAKVQWKVDNALQSGNSQESVTEQDSKDSTYSLSSTLTLSKADYEKHKVYACEVTHQGLSSPVTKSFNRGEC
notes: also called AB1310-TriNKET®; AB1783 10F10 F3′ LH H(T62S) CHO opt
- EC50 [1]: 7.6 nM
- EC50 [2]: 2.5 nM
- EC50 [3]: 2.6 nM
- Kd [4]: 6.1 nM
- koff [4]: 0.00077 s⁻¹
- kon [4]: 130000 M⁻¹ s⁻¹
- EC50 (read off the curve) [5]: ~2 nM
- EC50 [6]: 3.7 nM
- long-term NK cell-mediated inhibition of HCT 116 cells (Incucyte, 72 h), EC50 [7]: 0.16 nM
- long-term NK cell-mediated inhibition of HT-29 cells (Incucyte, 72 h), EC50 [7]: 1.3 nM
- long-term NK cell-mediated inhibition of KYSE-30 cells (Incucyte, 72 h), EC50 [7]: 0.087 nM
- long-term NK cell-mediated inhibition of NCI-H292 cells (Incucyte, 72 h), EC50 [7]: 0.37 nM
- Kd [8]: 9.4 nM
- koff [8]: 0.0012 s⁻¹
- kon [8]: 120000 M⁻¹ s⁻¹
- EC50 [9]: 2.7 nM
- CD8+ T-cell lysis of BT-474 cells (Incucyte, 72 h), EC50 [10]: 0.66 nM
- CD8+ T-cell lysis of FaDu cells (Incucyte, 72 h), EC50 [10]: 0.59 nM
- EC50 [11]: 3.42 nM
- Max Fold Over Background (FOB) [11]: 82.8 fold over background
- Kd (cynomolgus 5T4): 8.3 nM
- Kd [12]: 6.2 nM
